Experimental data from US20140323404A1 (GUANGDONG MEDICAL COLLEGE, published 2014).

B1: NAPTin-6 (peptide)
chain: NPSCGENERHDECSRKECDPKCKYDGTEEKDDEKPVVCLTRVCYGDCICRDGFLRNKNGACVKAEDCE
B2: NAPTin-4 (peptide)
chain: NPSCGENERHDECSRKECDPKCKYDGTEEKDDEKPVVCLTRVCYGDCICRDGFLRNKNGACVKAEDCELDNME
B3: NAPTin-3 (peptide)
chain: NPSCGENERHDECSRKECDPKCKYDGTEEKDDEKPVVCLTRVCYGDCICRDGFLRNKNGACVKAEDCELDNM
B4: NAPTin-2 (peptide)
chain: NPSCGENERHDECSRKECDPKCKYDGTEEKDDEKPVVCLTRVCYGDCICRDGFLRNKNGACVKAEDCELDN
B5: NAPTin-9 (peptide)
chain: NPSCGENERHDECSRKECDPKCKYDGTEEKDDEKPVVCLTRVCYGDCICRDGFLRNKNGACVKAEDCELDNMEFI
B6: NAPTin-7 (peptide)
chain: NPSCGENERHDECSRKECDPKCKYDGTEEKDDEKPVVCLTRVCYGDCICRDGFLRNKNGACVKAEDC
B7: NAPTin-8 (peptide)
chain: NPSCGENERHDECSRKECDPKCKYDGTEEKDDEKPVVCLTRVCYGDCICRDGFLRNKNGACVKAEDCELDNMEF
B8: NAPTin-5 (peptide)
chain: NPSCGENERHDECSRKECDPKCKYDGTEEKDDEKPVVCLTRVCYGDCICRDGFLRNKNGACVKAEDCEL

Biological target: Human coagulation factor XIa (human, UniProt P03951 19-625)
Assay: cell-based or functional assay

| Binder | inhibition of fXIa activity, chromogenic assay, polypeptide at 100 nM |
| --- | --- |
| B1 | > 90% |
| B2 | > 90% |
| B3 | > 90% |
| B4 | > 90% |
| B5 | > 90% |
| B6 | > 90% |
| B7 | > 90% |
| B8 | > 90% |
